Laboratory results from patent US10307466B2, “Composition comprising sophorolipid, physiologically active substance and oil or fat, and method for producing the same” (SARAYA CO., LTD., priority 2014, dated 2019).

System: ICR mice
Assay: Tail-flick test with 48° C. heat stimulation (enhancement of the analgesic effect of morphine)
Format: in vivo
Parameters: key: −: no analgesic effect was observed; ±: an analgesic effect comparable to the treatment control was observed; +: an analgesic effect comparable to the positive control was observed; ++: a higher analgesic effect than the positive control was observed; +++: a higher analgesic effect than “++” was observed
Experimental: For the evaluation of an analgesic effect, the tail-flick test was performed with 48° C. heat stimulation. In the tail-flick test, the tail of mice is exposed to heat stimulation, and latency for the animal to flick the tail is measured. The response latency is known to be delayed after administration of an analgesic drug such as morphine. The test is used for the evaluation of an analgesic effect.
ICR mice at 5 weeks old were subjected to daily simultaneous administration of an intraperitoneal dose of morphine (3 mg/kg) (morphine hydrochloride (trade name), Daiichi Sankyo) and an oral dose of one of the compositions of Examples 1 to 3 (300 mg/kg bLF) and Comparative Example 1 (300 mg/kg) for 5 days. At 30 and 90 minutes after the administration on day 5, the tail-flick test was performed.
As a treatment control, ICR mice at 5 weeks old were subjected to daily simultaneous administration of an intraperitoneal dose of morphine (3 mg/kg) and an oral dose of physiological saline for 5 days. The tail-flick test was then performed in the same manner as above.
As a negative control, daily simultaneous administration of an intraperitoneal dose of physiological saline and an oral dose of physiological saline was performed for 5 days. […]

B1: bovine lactoferrin (protein, UniProt P24627 20-708, looked up)
Lactotransferrin: APRKNVRWCTISQPEWFKCRRWQWRMKKLGAPSITCVRRAFALECIRAIAEKKADAVTLDGGMVFEAGRDPYKLRPVAAEIYGTKESPQTHYYAVAVVKKGSNFQLDQLQGRKSCHTGLGRSAGWIIPMGILRPYLSWTESLEPLQGAVAKFFSASCVPCIDRQAYPNLCQLCKGEGENQCACSSREPYFGYSGAFKCLQDGAGDVAFVKETTVFENLPEKADRDQYELLCLNNSRAPVDAFKECHLAQVPSHAVVARSVDGKEDLIWKLLSKAQEKFGKNKSRSFQLFGSPPGQRDLLFKDSALGFLRIPSKVDSALYLGSRYLTTLKNLRETAEEVKARYTRVVWCAVGPEEQKKCQQWSQQSGQNVTCATASTTDDCIVLVLKGEADALNLDGGYIYTAGKCGLVPVLAENRKSSKHSSLDCVLRPTEGYLAVAVVKKANEGLTWNSLKDKKSCHTAVDRTAGWNIPMGLIVNQTGSCAFDEFFSQSCAPGADPKSRLCALCAGDDQGLDKCVPNSKEKYYGYTGAFRCLAEDVGDVAFVKNDTVWENTNGESTADWAKNLNREDFRLLCLDGTRKPVTEAQSCHLAVAPNHAVVSRSDRAAHVKQVLLHQQALFGKNGKNCPDKFCLFKSETKNLLFNDNTECLAKLGGRPTYEEYLGTEYVTAIANLKKCSTSPLLEACAFLTR
Evaluation at 30 min (analgesic effect, tail-flick test) (30 minutes after administration on day 5, daily i.p. morphine 3 mg/kg + oral composition (300 mg/kg bLF) for 5 days): +
Evaluation at 90 min (analgesic effect, tail-flick test) (90 minutes after administration on day 5, daily i.p. morphine 3 mg/kg + oral composition (300 mg/kg bLF) for 5 days): +
